Patent US20040192898A1
Several values for one entry are separate records, joined by “and”; a condition that tells them apart may be missing. Equal entries are not always repeated.

Assays:
[1] = target: β-amyloid peptide (1-42) conjugated to BSA (bovine) (UniProt P05067); experiment: competition ELISA, BSA-β-amyloid peptide coated, against biotinylated Mu266 (0.6 µg/ml); Exp. III, N56T series
[2] = target: β-amyloid peptide (1-42) conjugated to BSA (bovine) (UniProt P05067); experiment: competition ELISA, BSA-β-amyloid peptide coated, against biotinylated Mu266 (0.6 µg/ml); Exp. III, N56S series
[3] = target: β-amyloid peptide (1-42) conjugated to BSA (bovine) (UniProt P05067); experiment: competition ELISA, BSA-β-amyloid peptide coated, against biotinylated Mu266 (0.6 µg/ml); Exp. I, N56T series
[4] = target: β-amyloid peptide (1-42) conjugated to BSA (bovine) (UniProt P05067); experiment: competition ELISA, BSA-β-amyloid peptide coated, against biotinylated Mu266 (0.6 µg/ml); Exp. I, N56S series
[5] = target: β-amyloid peptide (1-42) conjugated to BSA (bovine) (UniProt P05067); experiment: competition ELISA, BSA-β-amyloid peptide coated, against biotinylated Mu266 (0.6 µg/ml); average of three, N56S series
[6] = target: β-amyloid peptide (1-42) conjugated to BSA (bovine) (UniProt P05067); experiment: competition ELISA as in Example 7, against biotinylated Mu266; N=1
[7] = target: β-amyloid peptide (1-42) conjugated to BSA (bovine) (UniProt P05067); experiment: competition ELISA, BSA-β-amyloid peptide coated, against biotinylated Mu266 (0.6 µg/ml); average of three, N56T series
[8] = target: β-amyloid peptide (1-42) conjugated to BSA (bovine) (UniProt P05067); experiment: competition ELISA, Aβ1-42-BSA coated, against biotinylated Mu266 (0.3 µg/ml); mean of three experiments, first set
Amyloid-beta 1-42 = Amyloid-beta 1-42 (UniProt P05067); experiment: SPR, BIAcore 2000; antibody captured, Aβ flowed over
Amyloid-beta 1-40 = Amyloid-beta 1-40 (UniProt P05067); experiment: as above
[9] = target: β-amyloid peptide (1-42) conjugated to BSA (bovine) (UniProt P05067); experiment: competition ELISA, BSA-β-amyloid peptide coated, against biotinylated Mu266 (0.6 µg/ml); Exp. II, N56S series
[10] = target: β-amyloid peptide (1-42) conjugated to BSA (bovine) (UniProt P05067); experiment: competition ELISA, Aβ1-42-BSA coated, against biotinylated Mu266 (0.3 µg/ml); mean of three experiments, second set
[11] = target: β-amyloid peptide (1-42) conjugated to BSA (bovine) (UniProt P05067); experiment: competition ELISA as in Example 7, against biotinylated Mu266; mean, N=3
[12] = target: β-amyloid peptide (1-42) conjugated to BSA (bovine) (UniProt P05067); experiment: competition ELISA, BSA-β-amyloid peptide coated, against biotinylated Mu266 (0.6 µg/ml); Exp. II, N56T series

Mouse monoclonal antibody 266
IC50 [1]: 6.4 µg/mL
IC50 [2]: 6.1 µg/mL
IC50 [3]: 4.3 µg/mL
IC50 [4]: 3.8 µg/mL
IC50 [5]: 4.8 µg/mL
IC50 [6]: 3.8 µg/mL and 7.1 µg/mL
IC50 [7]: 5.7 µg/mL
IC50 [8]: 4.7 µg/mL
Kd (Amyloid-beta 1-42): 4 pM
Kd (Amyloid-beta 1-40): 4 pM
IC50 [9]: 4.5 µg/mL
IC50 [10]: 3.87 µg/mL
IC50 [11]: 7.6 µg/mL and 14 µg/mL
IC50 [12]: 6.4 µg/mL
